Target: T1, Aβ1-42 peptide (Aβ1-42 oligomers, Aβ-derived diffusible ligands) (UniProt P05067 672-713)
T1 construct: amyloid-beta peptide 1-42, the cut product of the amyloid precursor protein APP; numbers count on: the Aβ peptide; Used as oligomers: by SDS-PAGE and western blot mainly tetramers (~18 kDa) with a minor monomer band (~4.5 kDa); also called synthetic Aβ_(1-42); source: bought: AbcamBiochemicals (synthetic Aβ1-42), prepared as Aβ-derived diffusible ligands
Experiment: ELISA; NCAM2-ED (25 nM) or BSA (25 nM) held on MaxiSorp 96-well plates coated with antibodies against the extracellular domain of NCAM2; Aβ1-42 7.8-250 nM in 0.05% Tween 20 and 0.1% BSA; bound Aβ1-42 detected with antibodies against Aβ1-42 and HRP-conjugated secondary antibodies
Settings: both partners purified

- binding result: binds
B1: recombinant extracellular domain of NCAM2 (NCAM2-ED) (domain or fragment, mouse, UniProt O35136 20-698, looked up)
chain: LLQVTISLSKVELSVGESKFFTCTAIGEPESIDWYNPQGEKIISTQRVMLQKEGVRSRLTIYNANIEDAGIYRCQATDAKGQTQEATVVLEIYQKLTFREVVSPQEFKQGEDAEVVCRVSSSPAPAVSWLYHNEEVTTIPDNRFAVLANNNLQILNINKSDEGIYRCEGRVEARGEIDFRDIIVIVNVPPAIMMPQKSFNATAERGEEMTLTCKASGSPDPTISWFRNGKLIEENEKYILKGSNTELTVRNIINKDGGSYVCKATNKAGEDQKQAFLQVFVQPHILQLKNETTSENGHVTLVCEAEGEPVPEITWKRAIDGVMFSEGDKSPDGRIEVKGQHGRSSLHIRDVKLSDSGRYDCEAASRIGGHQRSMHLDIEYAPKFVSNQTMYYSWEGNPINISCDVTANPPASIHWRREKLLLPAKNTTHLKTHSVGRKMILEIAPTSDNDFGRYNCTATNRIGTRFQEYILELADVPSSPHGVKIIELSQTTAKISFNKPESHGGVPIHHYQVDVKEVASETWKIVRSHGVQTMVVLSSLEPNTTYEIRVAAVNGKGQGDYSKIEIFQTLPVREPSPPSIHGQPSSGKSFKISITKQDDGGAPILEYIVKYRSKDKEDQWLEKKVQGNKDHIILEHLQWTMGYEVQITAANRLGYSEPTVYEFSMPPKPNIIKDTLFNG
notes: signal peptide in the construct; neural cell adhesion molecule 2 (NCAM2, OCAM), mouse, extracellular domain, amino acids 1-698, amplified from a mouse brain cDNA library; About 100 kDa on gels; also called recombinant soluble extracellular domains of NCAM2; source: CHO cells (CHO-K1), stably transfected, secreted into the culture medium; purified (40% ammonia sulphate, desalted, …)
